The target in this data set is T1, PUF4 RNA-binding domain (Saccharomyces cerevisiae, UniProt P25339 537-888).
T1 sequence: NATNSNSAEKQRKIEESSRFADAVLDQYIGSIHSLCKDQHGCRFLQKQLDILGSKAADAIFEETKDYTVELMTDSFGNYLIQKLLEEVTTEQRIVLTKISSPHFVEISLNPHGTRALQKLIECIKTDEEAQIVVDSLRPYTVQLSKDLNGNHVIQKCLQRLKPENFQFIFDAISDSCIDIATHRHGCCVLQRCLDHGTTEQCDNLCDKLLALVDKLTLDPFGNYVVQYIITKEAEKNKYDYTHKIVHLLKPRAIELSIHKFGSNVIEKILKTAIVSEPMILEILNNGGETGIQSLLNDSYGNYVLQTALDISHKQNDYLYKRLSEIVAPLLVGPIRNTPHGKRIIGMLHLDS
In words: Mg; RNA-MaP; 20 mM Na-HEPES pH 7.4, 30 mM KOAc, 0.75 mM MgCl2, 0.1% Tween-20, 5% glycerol, 0.1 mg/mL BSA, 2 mM DTT; 25 C; 0.0125-409.6 nM protein. To be noted: tags: N-His6-TEV cleaved; C-SNAP kept, Cy3B-labelled; label: tethered on chip by stalled RNA polymerase.

From article PMC9352680, “A comprehensive thermodynamic model for RNA binding by the Saccharomyces cerevisiae Pumilio protein PUF4” come the findings set out here.

Changes are numbered by the printed parent chain. Names and notes keep the numbering of the source.

As for UCUCUUUGCAUAUUAUCUCUU (ssRNA) [Ia_S1_P4E.1_K4.1_C4.1_H4.1_[T3C]_A4.1_F4.1_T4.1], the Kd was 76.5 nM. UCUCUUUGUAAAUGAUCUCUU (ssRNA) [Ib_S1_P4E.1_K4.1_C4.1_H4.1_A4.1_[T5A]_F4.1_[T8G]_T4.1]: binding was put at a Kd of 113 nM.

B1: Ic_S4_P4E.1_K4.1_C4.1_H4.1_A4.1_[T5C]_[A6G]_[T7C]_F4.1_[T8C]_[A9C]_T4.1 (ssRNA)
RNA: UUUGACAACUGAUCGUUCUUUCUUGUACGCCCUUCUUUCUCGAUCAGUUGUCUUU
Take B1: binding was put at a Kd of 142 nM.

B2: Ic_S4_P4E.1_K4.1_C4.1_H4.1_A4.1_[T5C]_[A6G]_F4.1_[T8C]_[A9C]_T4.1 (ssRNA)
RNA: B1 RNA with C30U
Consider B2, for which binding was put at a Kd of 35 nM.

B3: Ic_S4_P4E.1_K4.1_C4.1_H4.1_A4.1_[T5C]_[A6C]_[T7A]_F4.1_[A9C]_T4.1 (ssRNA)
RNA: B1 RNA with G29C, C30A, C31U
In the case of B3, the Kd came out at 15.2 nM.

B4: Ic_S4_P4E.1_K4.1_C4.1_H4.1_A4.1_[T5C]_[A6C]_[T7C]_F4.1_[T8A]_[A9C]_T4.1 (ssRNA)
RNA: B1 RNA with G29C, C31A
On to B4, for which the Kd was found to be 1090 nM.

B5: Ic_S4_P4E.1_K4.1_C4.1_H4.1_A4.1_[T5C]_[A6C]_[T7G]_F4.1_[A9T]_T4.1 (ssRNA)
RNA: B1 RNA with G29C, C30G, C31U, C32U
On to B5, for which the Kd was found to be 48.5 nM.

B6: Ic_S4_P4E.1_K4.1_C4.1_H4.1_A4.1_[T5C]_[A6C]_[T7G]_F4.1_[T8C]_[A9C]_T4.1 (ssRNA)
RNA: B1 RNA with G29C, C30G
Turning to B6, binding was put at a Kd of 973 nM.

B7: Ic_S4_P4E.1_K4.1_C4.1_H4.1_A4.1_[T5C]_[A6G]_F4.1_[A9T]_T4.1 (ssRNA)
RNA: B1 RNA with C30U, C31U, C32U
For the molecule B7, the Kd was 11.9 nM.

B8: Ic_S4_P4E.1_K4.1_C4.1_H4.1_A4.1_[T5C]_[A6C]_[T7A]_F4.1_[A9T]_T4.1 (ssRNA)
RNA: B1 RNA with G29C, C30A, C31U, C32U
The molecule B8 registered a Kd of 4.54 nM.

B9: Ic_S4_P4E.1_K4.1_C4.1_H4.1_A4.1_[T5C]_[A6G]_F4.1_[T8C]_[A9G]_T4.1 (ssRNA)
RNA: B1 RNA with C30U, C32G
As for B9, the equilibrium dissociation constant (Kd) turned out to be 395 nM.

B10: Ic_S4_P4E.1_K4.1_C4.1_H4.1_A4.1_[T5C]_[A6C]_[T7C]_F4.1_[A9C]_T4.1 (ssRNA)
RNA: B1 RNA with G29C, C31U
Consider B10, for which the Kd stood at 31.2 nM.

B11: Ic_S4_P4E.1_K4.1_C4.1_H4.1_A4.1_[T5C]_[A6C]_[T7G]_F4.1_[T8C]_[A9T]_T4.1 (ssRNA)
RNA: B1 RNA with G29C, C30G, C32U
Molecule B11 displayed a dissociation constant (Kd) of 150 nM.

B12: Ic_S4_P4E.1_K4.1_C4.1_H4.1_A4.1_[T5C]_[A6C]_F4.1_[A9T]_T4.1 (ssRNA)
RNA: B1 RNA with G29C, C30U, C31U, C32U
For the molecule B12, the Kd turned out to be 10.8 nM.

B13: Ic_S4_P4E.1_K4.1_C4.1_H4.1_A4.1_[T5C]_[A6C]_F4.1_[T8G]_[A9C]_T4.1 (ssRNA)
RNA: B1 RNA with G29C, C30U, C31G
B13 returned a Kd of 93 nM.

B14: Ic_S4_P4E.1_K4.1_C4.1_H4.1_A4.1_[T5C]_[A6G]_[T7A]_F4.1_[T8C]_[A9C]_T4.1 (ssRNA)
RNA: B1 RNA with C30A
B14 registered a Kd of 994 nM.

B15: Ic_S4_P4E.1_K4.1_C4.1_H4.1_A4.1_[T5C]_[A6C]_[T7G]_F4.1_[T8G]_[A9T]_T4.1 (ssRNA)
RNA: B1 RNA with G29C, C30G, C31G, C32U
As to B15, the affinity, expressed as Kd, was 2190 nM.

B16: Ic_S4_P4E.1_K4.1_C4.1_H4.1_A4.1_[T5C]_[A6C]_[T7C]_F4.1_[T8G]_[A9G]_T4.1 (ssRNA)
RNA: B1 RNA with G29C, C31G, C32G
As to B16, the Kd was 1370 nM.

B17: Ic_S4_P4E.1_K4.1_C4.1_H4.1_A4.1_[T5C]_[A6G]_F4.1_[T8A]_[A9T]_T4.1 (ssRNA)
RNA: B1 RNA with C30U, C31A, C32U
B17 came in with a Kd of 30.2 nM.

B18: Ic_S4_P4E.1_K4.1_C4.1_H4.1_A4.1_[T5C]_[A6G]_[T7A]_F4.1_[T8C]_T4.1 (ssRNA)
RNA: B1 RNA with C30A, C32A
As for B18, the equilibrium dissociation constant (Kd) is 436 nM.

B19: Ic_S4_P4E.1_K4.1_C4.1_H4.1_A4.1_[T5C]_[A6C]_[T7A]_F4.1_[T8C]_[A9T]_T4.1 (ssRNA)
RNA: B1 RNA with G29C, C30A, C32U
For the molecule B19, the Kd came out at 47.1 nM.

B20: Ic_S4_P4E.1_K4.1_C4.1_H4.1_A4.1_[T5C]_[A6G]_[T7C]_F4.1_[T8A]_[A9G]_T4.1 (ssRNA)
RNA: B1 RNA with C31A, C32G
In turn, B20 registered a Kd of 1470 nM.

B21: Ic_S4_P4E.1_K4.1_C4.1_H4.1_A4.1_[T5C]_[A6C]_F4.1_T4.1 (ssRNA)
RNA: B1 RNA with G29C, C30U, C31U, C32A
The molecule B21 came in with a Kd of 1.74 nM.

B22: Ic_S4_P4E.1_K4.1_C4.1_H4.1_A4.1_[T5C]_[A6T]_[T7G]_F4.1_[T8G]_[A9T]_T4.1 (ssRNA)
RNA: B1 RNA with G29U, C30G, C31G, C32U
In turn, B22 showed a Kd of 975 nM.

B23: Ic_S4_P4E.1_K4.1_C4.1_H4.1_A4.1_[T5C]_[A6C]_[T7C]_F4.1_[T8C]_[A9G]_T4.1 (ssRNA)
RNA: B1 RNA with G29C, C32G
B23 came in with a Kd of 642 nM.

B24: Ic_S4_P4E.1_K4.1_C4.1_H4.1_A4.1_[T5C]_[A6C]_F4.1_[T8A]_[A9C]_T4.1 (ssRNA)
RNA: B1 RNA with G29C, C30U, C31A
In turn, B24 yielded a Kd of 75.8 nM.

B25: Ic_S4_P4E.1_K4.1_C4.1_H4.1_A4.1_[T5C]_[A6G]_F4.1_[T8G]_[A9T]_T4.1 (ssRNA)
RNA: B1 RNA with C30U, C31G, C32U
With B25, the Kd turned out to be 33.7 nM.

B26: Ic_S4_P4E.1_K4.1_C4.1_H4.1_A4.1_[T5C]_[A6C]_[T7A]_F4.1_T4.1 (ssRNA)
RNA: B1 RNA with G29C, C30A, C31U, C32A
B26 came in with a Kd of 0.476 nM.

B27: Ic_S4_P4E.1_K4.1_C4.1_H4.1_A4.1_[T5C]_[A6G]_[T7C]_F4.1_[T8A]_T4.1 (ssRNA)
RNA: B1 RNA with C31A, C32A
B27 showed a Kd of 657 nM.

B28: Ic_S4_P4E.1_K4.1_C4.1_H4.1_A4.1_[T5C]_[A6C]_F4.1_[T8A]_[A9T]_T4.1 (ssRNA)
RNA: B1 RNA with G29C, C30U, C31A, C32U
As to B28, the Kd worked out at 12.9 nM.

B29: Ic_S4_P4E.1_K4.1_C4.1_H4.1_A4.1_[T5C]_[A6C]_F4.1_[T8G]_[A9G]_T4.1 (ssRNA)
RNA: B1 RNA with G29C, C30U, C31G, C32G
In the case of B29, binding was characterised by a dissociation constant (Kd) of 431 nM.

B30: Ic_S4_P4E.1_K4.1_C4.1_H4.1_A4.1_[T5C]_[A6G]_F4.1_[T8A]_[A9C]_T4.1 (ssRNA)
RNA: B1 RNA with C30U, C31A
With B30, the equilibrium dissociation constant (Kd) came out at 316 nM.

B31: Ic_S4_P4E.1_K4.1_C4.1_H4.1_A4.1_[T5C]_[A6C]_F4.1_[T8A]_T4.1 (ssRNA)
RNA: B1 RNA with G29C, C30U, C31A, C32A
Consider B31, for which the Kd came out at 15.7 nM.

B32: Ic_S4_P4E.1_K4.1_C4.1_H4.1_A4.1_[T5C]_[A6G]_[T7C]_F4.1_T4.1 (ssRNA)
RNA: B1 RNA with C31U, C32A
Molecule B32 displayed a Kd of 2.22 nM.

B33: Ic_S4_P4E.1_K4.1_C4.1_H4.1_A4.1_[T5C]_[A6C]_[T7A]_F4.1_[T8C]_T4.1 (ssRNA)
RNA: B1 RNA with G29C, C30A, C32A
The molecule B33 gave a Kd of 151 nM.

B34: Ic_S4_P4E.1_K4.1_C4.1_H4.1_A4.1_[T5C]_[A6C]_[T7C]_F4.1_[T8G]_[A9C]_T4.1 (ssRNA)
RNA: B1 RNA with G29C, C31G
In turn, B34 displayed a Kd of 1190 nM.

B35: Ic_S4_P4E.1_K4.1_C4.1_H4.1_A4.1_[T5C]_[A6C]_F4.1_[T8C]_[A9C]_T4.1 (ssRNA)
RNA: B1 RNA with G29C, C30U
Regarding B35, binding was characterised by a dissociation constant (Kd) of 91.4 nM.

B36: Ic_S4_P4E.1_K4.1_C4.1_H4.1_A4.1_[T5C]_[A6C]_[T7G]_F4.1_[T8C]_[A9G]_T4.1 (ssRNA)
RNA: B1 RNA with G29C, C30G, C32G
As for B36, binding was characterised by a dissociation constant (Kd) of 827 nM.

B37: Ic_S4_P4E.1_K4.1_C4.1_H4.1_A4.1_[T5C]_[A6C]_[T7A]_F4.1_[T8A]_[A9T]_T4.1 (ssRNA)
RNA: B1 RNA with G29C, C30A, C31A, C32U
Take B37: the Kd amounted to 45.5 nM. For the molecule UCUCUUUGUUUAUUUUCUCUU (ssRNA) [Ib_S1_P4E.1_K4.1_C4.1_H4.1_[A4T]_A4.1_F4.1_[A9T]_T4.1], the dissociation constant (Kd) came out at 353 nM.

Take UCUCUUUGUACAUGAUCUCUU (ssRNA) [Ic_S1_P4E.1_K4.1_C4.1_H4.1_A4.1_[T5C]_F4.1_[T8G]_T4.1]: the dissociation constant Kd came to 20.2 nM.

On to UCUCUUUGUACAUCAUCUCUU (ssRNA) [Ic_S1_P4E.1_K4.1_C4.1_H4.1_A4.1_[T5C]_F4.1_[T8C]_T4.1], for which binding was characterised by a dissociation constant (Kd) of 8.45 nM.

One may read the Kd as the free concentration of one partner at which half of the binding sites on the other are occupied at equilibrium, for simple one-to-one binding. Low readings indicate higher affinity, high ones lower affinity.
